{"source": "patent US20230272055A1", "about": "(Incyte, published 2023)", "data": [{"target": "T1, human mutCALR on BaF3 cells stably expressing human MPL and human mutCALR (MPL-mutCALR cells) (human)", "T1 construct": "also called mutant calreticulin", "T1 chain": "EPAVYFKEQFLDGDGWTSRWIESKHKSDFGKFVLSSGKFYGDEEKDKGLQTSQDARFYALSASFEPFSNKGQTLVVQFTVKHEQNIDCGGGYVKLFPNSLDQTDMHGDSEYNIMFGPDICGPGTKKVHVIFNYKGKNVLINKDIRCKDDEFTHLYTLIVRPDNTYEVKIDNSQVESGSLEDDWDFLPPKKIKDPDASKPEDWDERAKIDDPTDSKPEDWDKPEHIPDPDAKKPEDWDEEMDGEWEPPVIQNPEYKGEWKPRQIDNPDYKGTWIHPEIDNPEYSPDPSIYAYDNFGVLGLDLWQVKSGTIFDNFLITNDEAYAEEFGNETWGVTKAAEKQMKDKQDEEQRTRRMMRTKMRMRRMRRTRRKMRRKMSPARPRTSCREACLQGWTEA", "test": "flow cytometry, BaF3 MPL-mutCALR cells", "experimental": "On the day of the assay, cells were washed and resuspended in assay buffer. Approximately 200,000 cells/well were added to 96-well plates and stained with the indicated concentration of antibodies for 30 minutes on ice. Cells were then washed and stained with goat anti-human secondary conjugated to R-phycoerythrin (R-PE) (Jackson Immuno Research Laboratories) for 30 minutes on ice. The cells were then washed and analyzed by flow cytometry.", "units": {"EC50": "ng/mL"}, "values": [{"binder": "anti-mutCALR antibody clone 82 (antibody, human IgG1, lambda, N297A, V domains shown) VH: EVQLVQSGAEVKKPGASVKVSCKVSGYTLTELSMQWVRQAPGKGLEWMGGFDPDSGETMYAEKFQGRLTVTEDTSTDTVYMELSSLRSEDTAVYFCATSPGYDFFDYWGQGTLVTVSS VL: SYVLTQPPSVSVAPGKTARITCGGNNIGSKSVHWYQQKPGQAPVLVVYDDSDRPSGIPERFSGSNSGNTATLTISRVEAGDEADYYCQVWDSSNDLLIFGGGTKLTVLG", "EC50": 4.8, "MPL-mutCALR AUC": 50200}, {"binder": "anti-mutCALR antibody clone 128 (antibody, human IgG1, lambda, N297A, V domains shown) VH: EVQLVQSGAEVKKPGASVKVSCKVSGYTLTELSMQWVRQAPGKGLEWMGGFDPDDAETMYAEKFQGRLTVTEDTSTDTVYMELRSLTSEDTALYFCATSPGYDFFDYWGQGTLVTVSS VL: SYELTQPPSVSVAPGKTARITCGGDNIGSKSVHWYQQKPGQAPVLVVYDDSDRPSGIPERFSGSNSGNTATLTINRVEAGDEADYYCQVWDSSNDLLIFGGGTKLTVLG", "MPL-mutCALR AUC": 88900}, {"binder": "anti-mutCALR antibody clone 124 (antibody, human IgG1, lambda, N297A) heavy: not shown light: SYELTQPPSVSVAPGKTARITCGGDNIGSKSVHWYQQKPGQAPVLVVYDDSDRPSGIPERFSGSNSGNTATLTINRVEAGDEADYYCQVWDSSNDLLIFGGGTKLTVLGQPKAAPSVTLFPPSSEELQANKATLVCLISDFYPGAVTVAWKADSSPVKAGVETTTPSKQSNNKYAASSYLSLTPEQWKSHRSYSCQVTHEGSTVEKTVAPTECS", "MPL-mutCALR AUC": 93700}, {"binder": "anti-mutCALR antibody clone 83 (antibody, human IgG1, lambda, N297A, V domains shown) VH: EVQLVQSGAEVKKPGASVKVSCKVSGYTLTELSMQWVRQAPGKGLEWMGGFDPDEGETMYAEKFQGRLTVTEDTSTDTVYMELSSLRSEDTAVYFCATSPGYDFFDYWGQGTLVTVSS VL: SYVLTQPPSVSVAPGKTARITCGGNNIGSKSVHWYQQKPGQAPVLVVYDDSDRPSGIPERFSGSNSGNTATLTISRVEAGDEADYYCQVWDSSNDLLIFGGGTKLTVLG", "EC50": 3.4, "MPL-mutCALR AUC": 62800}, {"binder": "anti-mutCALR antibody clone 132 (antibody, human IgG1, lambda, N297A, V domains shown) VH: EVQLVQSGAEVKKPGASVKVSCKVSGYTLTELSMQWVRQAPGKGLEWMGGFDPDEGETMYAEKFQGRLTVTEDTSTDTVYMELSSLRSEDTAVYFCATSPGYDFFDYWGQGTLVTVSS VL: SYELTQPPSVSVAPGKTARITCGGDNIGSKSVHWYQQKPGQAPVLVVYDDSDRPSGIPERFSGSNSGNTATLTINRVEAGDEADYYCQVWDSSNDLLIFGGGTKLTVLG", "EC50": 0.4, "MPL-mutCALR AUC": 73400}, {"binder": "anti-mutCALR antibody clone 127 (antibody, human IgG1, lambda, N297A, V domains shown) VH: EVQLVQSGAEVKKPGASVKVSCKVSGYTLTELSMQWVRQAPGKGLEWMGGFDPDEGETMYAEKFQGRLTVTEDTSTDTVYMELRSLTSEDTALYFCATSPGYDFFDYWGQGTLVTVSS VL: SYELTQPPSVSVAPGKTARITCGGDNIGSKSVHWYQQKPGQAPVLVVYDDSDRPSGIPERFSGSNSGNTATLTINRVEAGDEADYYCQVWDSSNDLLIFGGGTKLTVLG", "EC50": 1.4, "MPL-mutCALR AUC": 73500}, {"binder": "anti-mutCALR antibody clone 134 (antibody, human IgG1, lambda, N297A) heavy: not shown light: SYVLTQPPSVSVAPGKTARITCGGDNIGSKSVHWYQQKPGQAPVLVVYDDSDRPSGIPERFSGSNSGNTATLTISRVEAGDEADYYCQVWDSSNDLLIFGGGTKLTVLGQPKAAPSVTLFPPSSEELQANKATLVCLISDFYPGAVTVAWKADSSPVKAGVETTTPSKQSNNKYAASSYLSLTPEQWKSHRSYSCQVTHEGSTVEKTVAPTECS", "MPL-mutCALR AUC": 96700}, {"binder": "anti-mutCALR antibody clone 136 (antibody, human IgG1, lambda, N297A, V domains shown) VH: EVQLVQSGAEVKKPGASVKVSCKVSGYTLTELSMQWVRQAPGKGLEWMGGFDPDSGETMYAEKFQGRLTVTEDTSTDTVYMELRSLTSEDTALYFCATSPGYDFFDYWGQGTLVTVSS VL: SYVLTQPPSVSVAPGKTARITCGGDNIGSKSVHWYQQKPGQAPVLVVYDDSDRPSGIPERFSGSNSGNTATLTISRVEAGDEADYYCQVWDSSNDLLIFGGGTKLTVLG", "EC50": 2, "MPL-mutCALR AUC": 65000}, {"binder": "anti-mutCALR antibody clone 135 (antibody, human IgG1, lambda, N297A, V domains shown) VH: EVQLVQSGAEVKKPGASVKVSCKVSGYTLTELSMQWVRQAPGKGLEWMGGFDPDAGETMYAEKFQGRLTVTEDTSTDTVYMELRSLTSEDTALYFCATSPGYDFFDYWGQGTLVTVSS VL: SYVLTQPPSVSVAPGKTARITCGGDNIGSKSVHWYQQKPGQAPVLVVYDDSDRPSGIPERFSGSNSGNTATLTISRVEAGDEADYYCQVWDSSNDLLIFGGGTKLTVLG", "EC50": 3.2, "MPL-mutCALR AUC": 56300}, {"binder": "anti-mutCALR antibody clone 133 (antibody, human IgG1, lambda, N297A, V domains shown) VH: EVQLVQSGAEVKKPGASVKVSCKVSGYTLTELSMQWVRQAPGKGLEWMGGFDPDDAETMYAEKFQGRLTVTEDTSTDTVYMELSSLRSEDTAVYFCATSPGYDFFDYWGQGTLVTVSS VL: SYELTQPPSVSVAPGKTARITCGGDNIGSKSVHWYQQKPGQAPVLVVYDDSDRPSGIPERFSGSNSGNTATLTINRVEAGDEADYYCQVWDSSNDLLIFGGGTKLTVLG", "EC50": 1.7, "MPL-mutCALR AUC": 85200}, {"binder": "anti-mutCALR antibody clone 137 (antibody, human IgG1, lambda, N297A, V domains shown) VH: EVQLVQSGAEVKKPGASVKVSCKVSGYTLTELSMQWVRQAPGKGLEWMGGFDPDEGETMYAEKFQGRLTVTEDTSTDTVYMELRSLTSEDTALYFCATSPGYDFFDYWGQGTLVTVSS VL: SYVLTQPPSVSVAPGKTARITCGGDNIGSKSVHWYQQKPGQAPVLVVYDDSDRPSGIPERFSGSNSGNTATLTISRVEAGDEADYYCQVWDSSNDLLIFGGGTKLTVLG", "EC50": 1.7, "MPL-mutCALR AUC": 69700}, {"binder": "anti-mutCALR antibody clone 130 (antibody, human IgG1, lambda, N297A, V domains shown) VH: EVQLVQSGAEVKKPGASVKVSCKVSGYTLTELSMQWVRQAPGKGLEWMGGFDPDAGETMYAEKFQGRLTVTEDTSTDTVYMELSSLRSEDTAVYFCATSPGYDFFDYWGQGTLVTVSS VL: SYELTQPPSVSVAPGKTARITCGGDNIGSKSVHWYQQKPGQAPVLVVYDDSDRPSGIPERFSGSNSGNTATLTINRVEAGDEADYYCQVWDSSNDLLIFGGGTKLTVLG", "EC50": 1.7, "MPL-mutCALR AUC": 58300}, {"binder": "anti-mutCALR antibody clone 84 (antibody, human IgG1, lambda, N297A, V domains shown) VH: EVQLVQSGAEVKKPGASVKVSCKVSGYTLTELSMQWVRQAPGKGLEWMGGFDPDDAETMYAEKFQGRLTVTEDTSTDTVYMELSSLRSEDTAVYFCATSPGYDFFDYWGQGTLVTVSS VL: SYVLTQPPSVSVAPGKTARITCGGNNIGSKSVHWYQQKPGQAPVLVVYDDSDRPSGIPERFSGSNSGNTATLTISRVEAGDEADYYCQVWDSSNDLLIFGGGTKLTVLG", "EC50": 2.9, "MPL-mutCALR AUC": 82400}, {"binder": "anti-mutCALR antibody clone 125 (antibody, human IgG1, lambda, N297A, V domains shown) VH: EVQLVQSGAEVKKPGASVKVSCKVSGYTLTELSMQWVRQAPGKGLEWMGGFDPDAGETMYAEKFQGRLTVTEDTSTDTVYMELRSLTSEDTALYFCATSPGYDFFDYWGQGTLVTVSS VL: SYELTQPPSVSVAPGKTARITCGGDNIGSKSVHWYQQKPGQAPVLVVYDDSDRPSGIPERFSGSNSGNTATLTINRVEAGDEADYYCQVWDSSNDLLIFGGGTKLTVLG", "EC50": 2.1, "MPL-mutCALR AUC": 62700}, {"binder": "anti-mutCALR antibody clone 131 (antibody, human IgG1, lambda, N297A, V domains shown) VH: EVQLVQSGAEVKKPGASVKVSCKVSGYTLTELSMQWVRQAPGKGLEWMGGFDPDSGETMYAEKFQGRLTVTEDTSTDTVYMELSSLRSEDTAVYFCATSPGYDFFDYWGQGTLVTVSS VL: SYELTQPPSVSVAPGKTARITCGGDNIGSKSVHWYQQKPGQAPVLVVYDDSDRPSGIPERFSGSNSGNTATLTINRVEAGDEADYYCQVWDSSNDLLIFGGGTKLTVLG", "EC50": 1.1, "MPL-mutCALR AUC": 58300}]}]}
